Where “and” joins values, the source holds several entries; their conditions need not be identical. Equal values may be shown once. Read-outs that look alike come from different tables or passages of the source.
How the values were obtained:
Assay in all cases: cell-based or functional assay
[1] = target: T1, natural human IL-23 from activated THP-1 cells (human, UniProt P29460 23-328)
T1 sequence 1: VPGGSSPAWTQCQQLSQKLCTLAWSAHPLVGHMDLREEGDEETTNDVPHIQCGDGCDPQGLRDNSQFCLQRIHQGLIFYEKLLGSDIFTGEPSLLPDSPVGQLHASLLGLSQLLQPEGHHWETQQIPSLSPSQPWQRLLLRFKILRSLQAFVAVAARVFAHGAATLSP
T1 sequence 2: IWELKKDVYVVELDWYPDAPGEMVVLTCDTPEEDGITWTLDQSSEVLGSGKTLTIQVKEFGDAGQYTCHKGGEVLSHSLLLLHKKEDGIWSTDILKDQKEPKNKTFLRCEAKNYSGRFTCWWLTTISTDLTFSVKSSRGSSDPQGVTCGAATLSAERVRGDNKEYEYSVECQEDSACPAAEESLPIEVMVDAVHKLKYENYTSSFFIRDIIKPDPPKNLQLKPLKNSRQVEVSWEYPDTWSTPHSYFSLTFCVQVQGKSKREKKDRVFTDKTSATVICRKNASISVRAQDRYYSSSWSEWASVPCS

recombinant human IL-23 [2] = target: T2, recombinant human IL-23 (human, UniProt P29460 23-328)
T2 sequence 1: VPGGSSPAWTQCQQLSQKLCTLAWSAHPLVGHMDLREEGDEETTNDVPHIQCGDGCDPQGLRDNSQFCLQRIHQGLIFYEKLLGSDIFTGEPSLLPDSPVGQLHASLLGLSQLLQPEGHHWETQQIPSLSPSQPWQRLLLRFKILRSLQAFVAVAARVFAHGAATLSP
T2 sequence 2: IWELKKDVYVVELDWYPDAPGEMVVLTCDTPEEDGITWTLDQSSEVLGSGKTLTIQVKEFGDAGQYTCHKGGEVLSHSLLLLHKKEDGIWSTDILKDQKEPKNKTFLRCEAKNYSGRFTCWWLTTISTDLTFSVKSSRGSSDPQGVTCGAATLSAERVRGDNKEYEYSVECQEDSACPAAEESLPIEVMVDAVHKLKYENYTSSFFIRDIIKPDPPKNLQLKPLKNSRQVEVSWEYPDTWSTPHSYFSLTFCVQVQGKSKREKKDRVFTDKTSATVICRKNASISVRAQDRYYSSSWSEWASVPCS

human IL-12 = target: T3, human IL-12 (human, UniProt P29459 23-219; P29460 23-328)
T3 sequence (looked up) 1: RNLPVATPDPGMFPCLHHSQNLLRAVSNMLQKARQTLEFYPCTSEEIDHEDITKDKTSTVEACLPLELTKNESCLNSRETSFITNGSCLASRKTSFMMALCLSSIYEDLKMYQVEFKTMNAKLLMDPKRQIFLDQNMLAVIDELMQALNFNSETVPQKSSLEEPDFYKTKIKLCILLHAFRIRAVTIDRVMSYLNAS
T3 sequence (looked up) 2: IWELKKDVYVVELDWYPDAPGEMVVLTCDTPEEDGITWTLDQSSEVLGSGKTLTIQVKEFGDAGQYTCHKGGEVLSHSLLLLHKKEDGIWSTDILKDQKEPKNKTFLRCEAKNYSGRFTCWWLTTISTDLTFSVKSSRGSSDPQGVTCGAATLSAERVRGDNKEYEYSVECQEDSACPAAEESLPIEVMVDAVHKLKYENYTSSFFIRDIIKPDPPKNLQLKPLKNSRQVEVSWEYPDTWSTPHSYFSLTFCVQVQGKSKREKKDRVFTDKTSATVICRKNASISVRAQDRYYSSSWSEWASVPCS

recombinant human IL-23 [3] = target: T2, recombinant human IL-23; remark: listed apart in the source
[4] = target: recombinant human IL-23 (human) (UniProt P29460)
[5] = target: natural human IL-23 from activated THP-1 cells (human) (UniProt P29460)
recombinant human IL-23 [6] = target: T2, recombinant human IL-23; remark: listed apart in the source

B1: Antibody A (antibody, human IgG1, kappa, L234A L235A, V domains shown)
VH: QVQLVQSGAEVKKPGSSVKVSCKASGYTFTDQTIHWMRQAPGQGLEWIGYIYPRDDSPKYNENFKGKVTITADKSTSTAYMELSSLRSEDTAVYYCAIPDRSGYAWFIYWGQGTLVTVSS
VL: DIQMTQSPSSLSASVGDRVTITCKASRDVAIAVAWYQQKPGKVPKLLIYWASTRHTGVPSRFSGSGSRTDFTLTISSLQPEDVADYFCHQYSSYPFTFGSGTKLEIKR
[1]
  IC50, inhibition of IL-17 production from IL-23 stimulated mouse splenocytes: 0.001 nM
Recombinant human IL-23 [2]
  IC50, inhibition of IL-17 production from IL-23 stimulated mouse splenocytes: 0.005 nM and 0.015 nM
Human IL-12
  Average pg/ml IFN-γ +/- Standard Deviation, human PHA-derived T cell blasts with 1 ng/ml IL-12 (no antibody: 532 +/- 51; unstimulated: 87 +/- 7): 497 pg/mL

B2: Antibody C (antibody, human IgG1, kappa, L234A L235A, V domains shown)
VH: QVQLVQSGAEVKKPGSSVKVSCKASGYTFTDQTIHWMRQAPGQGLEWIGYIYPRDDSPKYNENFKGKVTITADKSTSTAYMELSSLRSEDTAVYYCAIPDRSGYAWFIYWGQGTLVTVSS
VL: DIQMTQSPSSLSASVGDRVTITCKASRDVAIAVAWYQQKPGKVPKLLLFWASTRHTGVPDRFSGSGSGTDFTLTISSLQPEDLADYYCHQYSSYPFTFGQGTKLEIKR
Recombinant human IL-23 [3]
  IC50, inhibition of IL-23 induced STAT3 phosphorylation in human DB cells: 0.132 nM and 0.08 nM
[1]
  IC50, inhibition of IL-17 production from IL-23 stimulated mouse splenocytes: 0.016 nM and 0.032 nM
Human IL-12
  Average pg/ml IFN-γ +/- Standard Deviation, human PHA-derived T cell blasts with 1 ng/ml IL-12 (no antibody: 532 +/- 51; unstimulated: 87 +/- 7): 495 pg/mL

B3: Antibody D (antibody, human IgG1, kappa, L234A L235A, V domains shown)
VH: QVQLVQSGAEVKKPGSSVKVSCKASGFTFTDQTIHWVRQAPGQGLEWMGYIYPRDDSPKYNENFKGKVTLTADKSTSTAYMELSSLRSEDTAVYYCAIPDRSGYAWFIYWGQGTLVTVSS
VL: DIQMTQSPSSLSASVGDRVTITCKASRDVAIAVAWYQQKPGKVPKLLLFWASTRHTGVPDRFSGSGSGTDFTLTISSLQPEDLADYYCHQYSSYPFTFGQGTKLEIKR
Recombinant human IL-23 [3]
  IC50, inhibition of IL-23 induced STAT3 phosphorylation in human DB cells: 0.158 nM
[1]
  IC50, inhibition of IL-17 production from IL-23 stimulated mouse splenocytes: 0.133 nM and 0.125 nM
Recombinant human IL-23 [2]
  IC50, inhibition of IL-17 production from IL-23 stimulated mouse splenocytes: 0.236 nM and 0.225 nM and 0.614 nM and 0.458 nM
Human IL-12
  Average pg/ml IFN-γ +/- Standard Deviation, human PHA-derived T cell blasts with 1 ng/ml IL-12 (no antibody: 532 +/- 51; unstimulated: 87 +/- 7): 539 pg/mL

B4: Antibody B (antibody, human IgG1, kappa, L234A L235A, V domains shown)
VH: QVQLVQSGAEVKKPGSSVKVSCKASGFTFTDQTIHWVRQAPGQGLEWMGYIYPRDDSPKYNENFKGKVTLTADKSTSTAYMELSSLRSEDTAVYYCAIPDRSGYAWFIYWGQGTLVTVSS
VL: DIQMTQSPSSLSASVGDRVTITCKASRDVAIAVAWYQQKPGKVPKLLIYWASTRHTGVPSRFSGSGSRTDFTLTISSLQPEDVADYFCHQYSSYPFTFGSGTKLEIKR
Recombinant human IL-23 [3]
  IC50, inhibition of IL-23 induced STAT3 phosphorylation in human DB cells: 0.073 nM and 0.084 nM
[1]
  IC50, inhibition of IL-17 production from IL-23 stimulated mouse splenocytes: 0.009 nM and 0.008 nM
Human IL-12
  Average pg/ml IFN-γ +/- Standard Deviation, human PHA-derived T cell blasts with 1 ng/ml IL-12 (no antibody: 532 +/- 51; unstimulated: 87 +/- 7): 537 pg/mL

B5: Antibody C1273 (disclosed in WO 2007/005955) (antibody, from another filing, V domains shown)
VH: DVNLVESGGGLVKPGGSLKLSCAASGFTFSSYTMSWVRQTPEKRLEWVATISSGGTYTYYPDSVKGRFTISRDNAKNTLYLQMSSLKSEDTAMFYCTRDNHAYDRGPFFDYWGQGATLTVSS
VL: DIVMSQSPSSLVVSVGEKVTMSCKSSQNLFYRSNQKNHLAWYQQKPGQSPTLLIYWTSTRESGVPDRFTGSGSGTDFTLTISRVKAEDLAVYYCQQYYSYPPTFGGGTKLEIK
[4]
  IC50, inhibition of IL-23 induced STAT3 phosphorylation in human DB cells: 0.163 nM and 0.438 nM
[5]
  IC50, inhibition of IL-17 production from IL-23 stimulated mouse splenocytes: 0.093 nM and 0.044 nM

B6: Chimeric 6B8 (antibody, IgG1, V domains shown)
VH: QVQLQQSDAELVKPGTSVKTSCKISGNTFTDQTIHWMKQRPEQGLEWIGYIYPRDDSPKYNENFKGKATLTADKSSSTAYMQLNSLTSEDSAVYFCAIPDRSGYAWFIYWGQGTLVTVSS
VL: DIVMTQSHKFLSTSVGDRVTITCKASRDVAIAVAWYQQKPGQSPKLLLFWASTRHTGVPDRFTGSGSRTDFTLTISNVQSEDLADYFCHQYSSYPFTFGSGTKLEIK
[1]
  IC50, inhibition of IL-17 production from IL-23 stimulated mouse splenocytes: 0.005 nM and 0.002 nM and 0.006 nM and 0.003 nM
Recombinant human IL-23 [2]
  IC50, inhibition of IL-17 production from IL-23 stimulated mouse splenocytes: 0.026 nM and 0.037 nM and 0.057 nM
Human IL-12
  Average pg/ml IFN-γ +/- Standard Deviation, human PHA-derived T cell blasts with 1 ng/ml IL-12 (no antibody: 532 +/- 51; unstimulated: 87 +/- 7): 523 pg/mL

B7: Antibody 6H12 (disclosed in WO 2007/027714) (antibody, from another filing, V domains shown)
VH: EVHLQQSGPELVKPGASVKMSCKASGYTFNRYLIHWVKQKPGQGLEWIGYINPNNDGTNYNEKFKGKATLTSDKSSSTAYMELSSLTSEDSAVYYCAANWDQAYWGQGTLVTVSA
VL: DIVMTQSPATLSVTPGDRVSLSCRASQSISDYLHWYQQKSHESPRLLIKYTSQSISGIPSRFSGSGSGSDFTLSINSVEPEDVGVYYCQNGHSFPFTFGSGTKLEIKR
Recombinant human IL-23 [6]
  IC50, inhibition of IL-17 production from IL-23 stimulated mouse splenocytes: 1.6 nM and 0.806 nM and 1.3 nM

B8: Chimeric 18E5 (antibody, V domains shown)
VH: EVQLQQSGPELVKPGAAVKMSCKASGYTFTRYLIHWVKQKPGQGLEWIGYINPYNDGTKYNEKFKGKATLTSDKSSSTAYMELSSLTSEDSAVYYCTSNWDLDYWGQGTTLTVSS
VL: DIVMTQSPATLSVTPGDRVSLSCRASQSISDYLYWYQQKSHESPRLLIKFASQSISGIPSRFTGSGSGSDFTLSIDSVEPDDVGVFFCQNGHSFPFTFGGGTKLEIK
Recombinant human IL-23 [2]
  IC50, inhibition of IL-17 production from IL-23 stimulated mouse splenocytes: 0.031 nM
Human IL-12
  Average pg/ml IFN-γ +/- Standard Deviation, human PHA-derived T cell blasts with 1 ng/ml IL-12 (no antibody: 532 +/- 51; unstimulated: 87 +/- 7): 511 pg/mL

B9: Chimeric 24A5 (antibody, V domains shown)
VH: EVQLQQSGPELVKPGASVKMSCKASGYTFTTSIMHWVKQKPGQGLEWIGYINPYDDVTKYNEKFKGKATLTSDKSSSTAYMELSSLTSEDSAVYYCVRRWDEAYWGQGTLVTVSA
VL: DIVMTQSPATLSVTPGNRVSLSCRASQSISDYLHWYQQKSHESPRLLIKYASQSISGIPSRFSGSGSGSNFTLSINSVEPEDVGVYYCQNGHSFPFTFGSGTKLEIK
[1]
  IC50, inhibition of IL-17 production from IL-23 stimulated mouse splenocytes: 0.095 nM and 0.102 nM
Recombinant human IL-23 [2]
  IC50, inhibition of IL-17 production from IL-23 stimulated mouse splenocytes: 0.404 nM

Reference: US20120282269A1 (Boehringer Ingelheim, published 2012)
